Experimental data as given in PMC9863593, “Crystal Structure of Allantoinase from Escherichia coli BL21: A Molecular Insight into a Role of the Active Site Loops in Catalysis” (Molecules, 2023).

Target: the molecule itself
Assay: crystal structure; hanging drop vapor diffusion, room temperature, 20% PEG8000, 100 mM CHES pH 9.5; protein at 30 mg/mL; space group C121; four monomers per asymmetric unit; 2.07 Å

B1: Allantoinase from Escherichia coli BL21 (enzyme)
chain: MSFDLIIKNGTVILENEARVVDIAVKGGKIAAIGQDLGDAKEVMDASGLVVSPGMVDAHTHISEPGRSHWEGYETGTRAAAKGGITTMIEMPLNQLPATVDRASIELKFDAAKGKLTIDAAQLGGLVSYNIDRLHELDEVGVVGFKCFVATCGDRGIDNDFRDVNDWQFFKGAQKLGELGQPVLVHCENALICDELGEEAKREGRVTAHDYVASRPVFTEVEAIRRVLYLAKVAGCRLHVCHVSSPEGVEEVTRARQEGQDVTCESCPHYFVLDTDQFEEIGTLAKCSPPIRDLENQKGMWEKLFNGEIDCLVSDHSPCPPEMKAGNIMEAWGGIAGLQNCMDVMFDEAVQKRGMSLPMFGKLMATNAADIFGLQQKGRIAPGKDADFVFIQPNSSYVLTNDDLEYRHKVSPYVGRTIGARITKTILRGDVIYDIEQGFPVAPKGQFILKHQQ
modifications: carbamylated lysine at 146 (Kcx146)
notes: Allantoinase (allB, ECD_00462) of E. coli BL21; predicted monomer of 453 amino acid residues, 49.6 kDa; Zinc-amended enzyme with 2 Zn ions per monomer; construct limits and tag are not described here; Residues 452-453 are said to be seen in the structure; also called EcALLase-BL21; E. coli BL21 ALLase
stoichiometry N: 4
